± gives the uncertainty stated by the source.

The labels stand for the following.
B1: Friend leukemia integration 1 transcription factor, residues 116 to 197; numbered along this chain, Q01543 (parent)
chain: NMTTNERRVIVPADPTLWTQEHVRQWLEWAIKEYSLMEIDTSFFQNMDGKELCKMNKEDFLRATTLYNTEVLLSHLSYLRES

The data set covers variants of B1. The data set is described as follows: abundance fitness (aPCA) (normalised: wild type 0, dead -1); higher = more abundant; growth selection in yeast, the domain comes from the species named. To be noted: Homo sapiens.
With L73C, the abundance fitness is -0.057 ± 0.11.
The same measure for L73H: -0.173 ± 0.19.
On to L73I, for which the abundance fitness was -0.21 ± 0.14.
The result for L73T reads -0.044 ± 0.086.
The same measure for L73P: -0.854 ± 0.2; for L73W: 0.039 ± 0.076.
The same measure for L73N: -0.631 ± 0.25; for L73R: -0.144 ± 0.073; for L73E: -0.343 ± 0.11.
With M37K, the abundance fitness was found to be 0.008 ± 0.093.
The same measure for M37P: -0.076 ± 0.099; for M37N: -0.44 ± 0.44.
As to M37R, the abundance fitness was -0.055 ± 0.057.
As to M37E, the abundance fitness is -0.115 ± 0.1.
The same measure for R62D: -0.4 ± 0.21; for R62L: 0.007 ± 0.055.
For the variant R62V, the abundance fitness worked out at 0.066 ± 0.072.
For the variant R62A, the abundance fitness was -0.159 ± 0.097.
As for R62P, the abundance fitness was -0.213 ± 0.09.
The same measure for T65R: -0.372 ± 0.069; for T65H: -0.283 ± 0.26.
The result for T65C reads -0.028 ± 0.12; that for T65Q, -0.235 ± 0.091; that for T65L, -0.615 ± 0.12.
The result for T65I reads -0.908 ± 0.29; that for H22N, -0.007 ± 0.14.
Take H22Y: the abundance fitness was -0.365 ± 0.21.
The same measure for H22G: -0.106 ± 0.079; for H22Q: 0.045 ± 0.088.
In the case of I10D, the abundance fitness stood at 0.207 ± 0.16.
The result for I10L reads -0.148 ± 0.069.
Take I10K: the abundance fitness came to 0.086 ± 0.12.
The same measure for I10Y: -0.237 ± 0.19.
I10V: the abundance fitness amounted to 0.035 ± 0.075.
The same measure for K54D: 0.098 ± 0.19.
The same measure for K54P: -0.687 ± 0.16.
Turning to R24G, the abundance fitness is 0.039 ± 0.082.
The same measure for R24W: 0.054 ± 0.11.
With R24Y, the abundance fitness is -0.278 ± 0.29.
The same measure for R24C: -0.347 ± 0.28; for A63M: 0.024 ± 0.079; for A63L: 0.022 ± 0.055.
On to A63N, for which the abundance fitness is 0.36 ± 0.23.
As for A63W, the abundance fitness came out at 0.002 ± 0.077.
The result for P15Y reads -0.512 ± 0.15; that for P15C, -0.398 ± 0.076.
The result for P15F reads -0.851 ± 0.18; that for P15V, -0.056 ± 0.048.
The result for T69A reads 0.084 ± 0.11; that for T69Y, -0.295 ± 0.2; that for T69G, -0.184 ± 0.079.
Turning to T69L, the abundance fitness was -0.561 ± 0.094.
The same measure for T4G: -0.065 ± 0.11; for T4Q: -0.085 ± 0.092; for C53P: -0.905 ± 0.17.
Consider C53N, for which the abundance fitness was -0.197 ± 0.12.
The same measure for C53R: -0.72 ± 0.11.
In the case of C53L, the abundance fitness amounted to 0.153 ± 0.047.
The result for F60G reads -1.1 ± 0.28.
Consider F60S, for which the abundance fitness is -0.881 ± 0.43.
The same measure for F60W: -0.114 ± 0.08; for L52R: -1.03 ± 0.16.
On to L52F, for which the abundance fitness was -0.072 ± 0.12.
The result for L52S reads -0.991 ± 0.18; that for L52T, -0.928 ± 0.29; that for V23F, -0.686 ± 0.43.
The same measure for V23M: -0.844 ± 0.3.
Take V23P: the abundance fitness was -0.044 ± 0.14.
The result for M55C reads 0.007 ± 0.15.
As to M55V, the abundance fitness was -0.331 ± 0.072.
On to M55G, for which the abundance fitness is -0.75 ± 0.083.
The same measure for M55L: 0.011 ± 0.055; for G49I: -0.506 ± 0.28; for G49L: -0.579 ± 0.093.
The same measure for E70V: -0.363 ± 0.089; for E70T: -0.213 ± 0.081; for E70S: -0.107 ± 0.071.
Take E70H: the abundance fitness was -0.001 ± 0.17.
For E70M, the abundance fitness was -0.239 ± 0.11.
For E70C, the abundance fitness was -0.448 ± 0.14.
As to K50V, the abundance fitness was -0.159 ± 0.1.
The result for K50E reads 0.058 ± 0.1.
The same measure for K50G: -0.059 ± 0.086.
The same measure for K50Q: 0.013 ± 0.1; for K50P: 0.013 ± 0.096.
With R7L, the abundance fitness was 0.155 ± 0.058.
Turning to R7M, the abundance fitness is -0.089 ± 0.14.
Turning to R7K, the abundance fitness was -0.292 ± 0.29.
The result for R7I reads -0.247 ± 0.28; that for N5C, 0.019 ± 0.2; that for N5Q, -0.228 ± 0.12.
With N5K, the abundance fitness was determined as 0.004 ± 0.064.
In the case of N5G, the abundance fitness was -0.042 ± 0.066.
In the case of V11S, the abundance fitness turned out to be 0.156 ± 0.055.
V11D: the abundance fitness was -0.004 ± 0.077.
For the variant V11I, the abundance fitness was -0.019 ± 0.086.
In the case of V11M, the abundance fitness came out at 0.114 ± 0.088.
For V11F, the abundance fitness is 0.166 ± 0.086.
For the variant R8L, the abundance fitness was -0.369 ± 0.1.
The same measure for R8P: -0.026 ± 0.12; for R8E: 0.045 ± 0.13.
As for R8F, the abundance fitness was -0.174 ± 0.2.
The same measure for R8I: -0.406 ± 0.21.
The result for R8V reads -0.297 ± 0.14.
On to T3A, for which the abundance fitness was determined as 0.089 ± 0.16.
The result for T3M reads 0.037 ± 0.11; that for T3D, -0.537 ± 0.5; that for T3W, -0.022 ± 0.096.
The result for T3R reads -0.169 ± 0.094.
As to T16W, the abundance fitness is -0.021 ± 0.13.
For the variant T16E, the abundance fitness is -0.159 ± 0.18.
On to T16D, for which the abundance fitness was -0.082 ± 0.38.
The result for T16A reads 0.086 ± 0.11; that for T16N, -0.22 ± 0.33; that for R80S, 0.103 ± 0.37.
The same measure for S42Y: -0.264 ± 0.14; for S42K: -0.223 ± 0.11; for M47W: -0.417 ± 0.1.
The same measure for M47P: -0.706 ± 0.19; for M47H: -0.248 ± 0.23; for M47G: -0.848 ± 0.19.
In the case of M47T, the abundance fitness is -0.344 ± 0.061.
The result for M47R reads -0.239 ± 0.048; that for M2N, -0.184 ± 0.31.
The result for M2K reads -0.314 ± 0.14; that for E58K, -0.162 ± 0.12; that for E58M, -0.19 ± 0.072.
E58G: the abundance fitness was 0.028 ± 0.077.
The result for E58V reads -0.17 ± 0.077; that for E58W, -0.153 ± 0.057.
The result for N1G reads -0.212 ± 0.14; that for N1Y, 0.004 ± 0.3; that for F43S, -0.037 ± 0.059.
The same measure for F43H: -0.167 ± 0.17.
Take F43P: the abundance fitness was -0.052 ± 0.066.
With N68W, the abundance fitness is -0.911 ± 0.16.
As to N68T, the abundance fitness was -0.146 ± 0.078.
The same measure for N68R: -0.547 ± 0.081; for N68K: -0.898 ± 0.32; for N68G: -0.125 ± 0.074.
Turning to N68E, the abundance fitness is -0.022 ± 0.094.
E33P: the abundance fitness is -0.973 ± 0.19.
The result for E33D reads -0.117 ± 0.27; that for E33N, -0.354 ± 0.25; that for E33Q, -0.055 ± 0.1.
For the variant E33H, the abundance fitness was -0.204 ± 0.23.
The same measure for E33W: -0.382 ± 0.08.
The same measure for V71K: 0.051 ± 0.14.
The result for V71C reads 0.094 ± 0.16; that for L17N, -0.289 ± 0.17; that for L17K, -0.085 ± 0.096.
For the variant L17G, the abundance fitness is 0.09 ± 0.083.
Turning to L17T, the abundance fitness was -0.011 ± 0.096.
In the case of L17H, the abundance fitness amounted to 0.081 ± 0.18.
For L17D, the abundance fitness was 0.224 ± 0.24.
For the variant E38H, the abundance fitness was -0.231 ± 0.15.
The result for E38N reads -0.397 ± 0.23; that for E38V, -0.231 ± 0.096; that for E38G, -0.131 ± 0.11.
Turning to L66C, the abundance fitness is -0.039 ± 0.12.
The same measure for L66I: 0.085 ± 0.12; for L66K: -0.038 ± 0.13; for L66W: 0.009 ± 0.087.
The same measure for L66F: -0.574 ± 0.32.
Regarding L66P, the abundance fitness was -0.015 ± 0.11.
Consider W18R, for which the abundance fitness is -0.563 ± 0.12.
Regarding W18K, the abundance fitness was -1.18 ± 0.31.

(Values after the Human Domainome abundance scans (Beltran et al. 2025).)
